The values that follow come from the supplement of paper PMC9112550, “Optimization of the antimicrobial peptide Bac7 by deep mutational scanning” (BMC Biology, 2022).

The data set concerns Escherichia coli TOP10. The data set is described as follows: shrunken log2 fold change of peptide-encoding DNA abundance (4.5 h post-induction vs induction); higher = less antimicrobial activity (less host growth inhibition). Particulars: time post-induction: 4.5 h; library: site-saturation at positions 5, 18, 19, 20.
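Note: peptides expressed intracellularly from a pBAD plasmid library in pooled LB shake-flask culture, induced with 0.3% L-arabinose, DNA abundance read by NGS, three biological replicates, DESeq2 with apeglm shrinkage.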

In the case of RRIRERPPRLPRPRPRPYTFPRP, the “shrunken log2 fold change” value is -0.282.

Take RRIRGRPPRLPRPRPRPDIHPRP: the “shrunken log2 fold change” value amounted to 0.439.

On to RRIRPRPPRLPRPRPRPPDLPRP, for which the “shrunken log2 fold change” value was found to be 0.366.

Turning to RRIRGRPPRLPRPRPRPCYPPRP, the “shrunken log2 fold change” value stood at 0.0523.

Turning to RRIRLRPPRLPRPRPRPLDTPRP, the “shrunken log2 fold change” value worked out at 0.0486.

With RRIRLRPPRLPRPRPRPNFFPRP, the “shrunken log2 fold change” value turned out to be 0.247.

Take RRIRIRPPRLPRPRPRPAEMPRP: the “shrunken log2 fold change” value stood at 0.0228.

RRIRIRPPRLPRPRPRPIRQPRP: the “shrunken log2 fold change” value came to 0.143.

Consider RRIRERPPRLPRPRPRPMRFPRP, for which the “shrunken log2 fold change” value is -0.0231.

Regarding RRIRRRPPRLPRPRPRPICEPRP, the “shrunken log2 fold change” value was 0.356.

Take RRIRGRPPRLPRPRPRPFCEPRP: the “shrunken log2 fold change” value came to 0.403.

Regarding RRIRFRPPRLPRPRPRPAQTPRP, the “shrunken log2 fold change” value was determined as 0.0962.

Turning to RRIRTRPPRLPRPRPRPKEIPRP, the “shrunken log2 fold change” value is -1.03.

Take RRIRMRPPRLPRPRPRPWTIPRP: the “shrunken log2 fold change” value was -0.0577.

Take RRIRMRPPRLPRPRPRPQSTPRP: the “shrunken log2 fold change” value worked out at 0.21.

Turning to RRIRNRPPRLPRPRPRPHEKPRP, the “shrunken log2 fold change” value is -0.0437.

With RRIRQRPPRLPRPRPRPQPQPRP, the “shrunken log2 fold change” value worked out at 0.0436.

On to RRIRYRPPRLPRPRPRPITHPRP, for which the “shrunken log2 fold change” value is -0.211.

On to RRIRIRPPRLPRPRPRPDETPRP, for which the “shrunken log2 fold change” value is -0.183.

Turning to RRIRKRPPRLPRPRPRPSMLPRP, the “shrunken log2 fold change” value was -0.0569.

Turning to RRIRSRPPRLPRPRPRPISYPRP, the “shrunken log2 fold change” value was -0.117.

For RRIRKRPPRLPRPRPRPSGKPRP, the “shrunken log2 fold change” value is -0.424.

With RRIRHRPPRLPRPRPRPQPVPRP, the “shrunken log2 fold change” value was 0.259.

Take RRIRSRPPRLPRPRPRPKNHPRP: the “shrunken log2 fold change” value was -0.215.

As for RRIRRRPPRLPRPRPRPVYPPRP, the “shrunken log2 fold change” value is -0.284.

As for RRIRSRPPRLPRPRPRPRQQPRP, the “shrunken log2 fold change” value came out at 0.0352.

Consider RRIRMRPPRLPRPRPRPNWVPRP, for which the “shrunken log2 fold change” value is -0.0816.

As to RRIRYRPPRLPRPRPRPDFMPRP, the “shrunken log2 fold change” value was -2.08.

As to RRIRIRPPRLPRPRPRPVDCPRP, the “shrunken log2 fold change” value came to 0.0257.

For RRIRDRPPRLPRPRPRPTELPRP, the “shrunken log2 fold change” value worked out at 0.103.

Consider RRIRYRPPRLPRPRPRPVELPRP, for which the “shrunken log2 fold change” value was -0.151.

Consider RRIRFRPPRLPRPRPRPHDMPRP, for which the “shrunken log2 fold change” value was -0.292.

In the case of RRIRNRPPRLPRPRPRPTMPPRP, the “shrunken log2 fold change” value was determined as 0.0915.

Take RRIRFRPPRLPRPRPRPDHHPRP: the “shrunken log2 fold change” value is -0.452.

In the case of RRIRYRPPRLPRPRPRPASLPRP, the “shrunken log2 fold change” value is -0.662.

As for RRIRTRPPRLPRPRPRPSVIPRP, the “shrunken log2 fold change” value was -0.268.

With RRIRFRPPRLPRPRPRPKHPPRP, the “shrunken log2 fold change” value stood at 0.194.

On to RRIRCRPPRLPRPRPRPGTMPRP, for which the “shrunken log2 fold change” value amounted to 0.0719.

RRIRRRPPRLPRPRPRPRKIPRP: the “shrunken log2 fold change” value was 0.405.

On to RRIRERPPRLPRPRPRPSSLPRP, for which the “shrunken log2 fold change” value is -0.223.

As for RRIRMRPPRLPRPRPRPQLGPRP, the “shrunken log2 fold change” value is -0.0543.

Turning to RRIRRRPPRLPRPRPRPVGRPRP, the “shrunken log2 fold change” value came to 0.472.

Take RRIRHRPPRLPRPRPRPEENPRP: the “shrunken log2 fold change” value turned out to be 0.0237.

Turning to RRIRYRPPRLPRPRPRPATSPRP, the “shrunken log2 fold change” value is -0.452.

With RRIRFRPPRLPRPRPRPTNQPRP, the “shrunken log2 fold change” value is -0.259.

On to RRIRVRPPRLPRPRPRPLRIPRP, for which the “shrunken log2 fold change” value stood at 0.0616.

RRIRVRPPRLPRPRPRPPRNPRP: the “shrunken log2 fold change” value was 0.343.

With RRIRPRPPRLPRPRPRPGKNPRP, the “shrunken log2 fold change” value is -0.00164.

For the sequence RRIRKRPPRLPRPRPRPEQTPRP, the “shrunken log2 fold change” value was found to be 1.15.

In the case of RRIRSRPPRLPRPRPRPSVHPRP, the “shrunken log2 fold change” value was -0.352.

With RRIRFRPPRLPRPRPRPEQEPRP, the “shrunken log2 fold change” value was -0.159.

RRIRTRPPRLPRPRPRPIYKPRP: the “shrunken log2 fold change” value is -1.02.

On to RRIRFRPPRLPRPRPRPFFPPRP, for which the “shrunken log2 fold change” value was found to be 0.386.

For the sequence RRIRPRPPRLPRPRPRPPTMPRP, the “shrunken log2 fold change” value came to 0.223.

Take RRIRHRPPRLPRPRPRPMRQPRP: the “shrunken log2 fold change” value came to 0.143.

For RRIRKRPPRLPRPRPRPLEKPRP, the “shrunken log2 fold change” value came to 0.219.

For the sequence RRIRRRPPRLPRPRPRPFRFPRP, the “shrunken log2 fold change” value is 0.506.

Regarding RRIRERPPRLPRPRPRPWWLPRP, the “shrunken log2 fold change” value is -0.183.

Regarding RRIRNRPPRLPRPRPRPWKGPRP, the “shrunken log2 fold change” value is -0.0198.

For RRIRIRPPRLPRPRPRPAFKPRP, the “shrunken log2 fold change” value is -0.317.

On to RRIRCRPPRLPRPRPRPGDVPRP, for which the “shrunken log2 fold change” value was -0.319.

Turning to RRIRYRPPRLPRPRPRPCWHPRP, the “shrunken log2 fold change” value is -0.0701.

As to RRIRMRPPRLPRPRPRPHMAPRP, the “shrunken log2 fold change” value was found to be 0.0168.

On to RRIRFRPPRLPRPRPRPFIYPRP, for which the “shrunken log2 fold change” value was -0.714.

On to RRIRDRPPRLPRPRPRPPIEPRP, for which the “shrunken log2 fold change” value is -0.0618.

In the case of RRIRERPPRLPRPRPRPYVHPRP, the “shrunken log2 fold change” value was -0.00146.

Take RRIRVRPPRLPRPRPRPTYSPRP: the “shrunken log2 fold change” value was -0.0431.

In the case of RRIRQRPPRLPRPRPRPDCHPRP, the “shrunken log2 fold change” value was -0.0897.

For RRIRERPPRLPRPRPRPDESPRP, the “shrunken log2 fold change” value was -0.304.

Turning to RRIRVRPPRLPRPRPRPEWDPRP, the “shrunken log2 fold change” value came to 0.454.

Consider RRIRSRPPRLPRPRPRPVEQPRP, for which the “shrunken log2 fold change” value was -0.0605.

Turning to RRIRGRPPRLPRPRPRPIHAPRP, the “shrunken log2 fold change” value was determined as 0.418.

Take RRIRMRPPRLPRPRPRPVDPPRP: the “shrunken log2 fold change” value was determined as 0.0473.

On to RRIRGRPPRLPRPRPRPAIEPRP, for which the “shrunken log2 fold change” value was 0.942.

Consider RRIRNRPPRLPRPRPRPYAEPRP, for which the “shrunken log2 fold change” value was -0.525.

In the case of RRIRVRPPRLPRPRPRPLDMPRP, the “shrunken log2 fold change” value is -0.024.

RRIRLRPPRLPRPRPRPPIQPRP: the “shrunken log2 fold change” value is 0.174.

Turning to RRIRHRPPRLPRPRPRPTAPPRP, the “shrunken log2 fold change” value was determined as 0.184.

On to RRIRTRPPRLPRPRPRPKPRPRP, for which the “shrunken log2 fold change” value amounted to 0.692.

With RRIRIRPPRLPRPRPRPCTQPRP, the “shrunken log2 fold change” value was -0.361.

As to RRIRTRPPRLPRPRPRPQIQPRP, the “shrunken log2 fold change” value was -0.418.

Consider RRIRYRPPRLPRPRPRPPGWPRP, for which the “shrunken log2 fold change” value came to 0.167.

On to RRIRMRPPRLPRPRPRPRDTPRP, for which the “shrunken log2 fold change” value amounted to 0.964.

Regarding RRIRGRPPRLPRPRPRPMGVPRP, the “shrunken log2 fold change” value was 0.00855.

For the sequence RRIRCRPPRLPRPRPRPCYRPRP, the “shrunken log2 fold change” value was -0.256.

In the case of RRIRNRPPRLPRPRPRPWYCPRP, the “shrunken log2 fold change” value is -0.451.

As to RRIRMRPPRLPRPRPRPEEQPRP, the “shrunken log2 fold change” value is -0.00184.

For the sequence RRIRQRPPRLPRPRPRPIKQPRP, the “shrunken log2 fold change” value came to 0.00621.

As for RRIRERPPRLPRPRPRPCWQPRP, the “shrunken log2 fold change” value is -0.0429.

For the sequence RRIRVRPPRLPRPRPRPVIRPRP, the “shrunken log2 fold change” value is -0.375.

For RRIRARPPRLPRPRPRPLMNPRP, the “shrunken log2 fold change” value was -0.178.

As for RRIRLRPPRLPRPRPRPQAYPRP, the “shrunken log2 fold change” value was -0.126.

In the case of RRIRDRPPRLPRPRPRPAGWPRP, the “shrunken log2 fold change” value came out at 1.05.

Consider RRIRWRPPRLPRPRPRPHKGPRP, for which the “shrunken log2 fold change” value is -0.185.

As to RRIRMRPPRLPRPRPRPAQVPRP, the “shrunken log2 fold change” value is -0.0213.

For the sequence RRIRMRPPRLPRPRPRPQYQPRP, the “shrunken log2 fold change” value is -0.00342.

As to RRIRERPPRLPRPRPRPHDLPRP, the “shrunken log2 fold change” value is -0.343.

With RRIRARPPRLPRPRPRPLIYPRP, the “shrunken log2 fold change” value was 0.0475.

As for RRIRSRPPRLPRPRPRPMIGPRP, the “shrunken log2 fold change” value was determined as 0.0355.

With RRIRIRPPRLPRPRPRPSNLPRP, the “shrunken log2 fold change” value was -0.931.

With RRIRWRPPRLPRPRPRPYLMPRP, the “shrunken log2 fold change” value is -0.319.

In the case of RRIRKRPPRLPRPRPRPMYHPRP, the “shrunken log2 fold change” value was -0.0356.

RRIRLRPPRLPRPRPRPPSGPRP: the “shrunken log2 fold change” value was 0.0718.

Regarding RRIRGRPPRLPRPRPRPDDVPRP, the “shrunken log2 fold change” value came to 0.966.

In the case of RRIRSRPPRLPRPRPRPSNGPRP, the “shrunken log2 fold change” value is -0.0205.

Take RRIRARPPRLPRPRPRPFAQPRP: the “shrunken log2 fold change” value was found to be 0.213.

As for RRIRARPPRLPRPRPRPGHRPRP, the “shrunken log2 fold change” value was 0.033.

For RRIRTRPPRLPRPRPRPATNPRP, the “shrunken log2 fold change” value was -0.0241.

Regarding RRIRRRPPRLPRPRPRPSGEPRP, the “shrunken log2 fold change” value was determined as 0.387.

For the sequence RRIRVRPPRLPRPRPRPKTGPRP, the “shrunken log2 fold change” value is -0.048.

RRIRRRPPRLPRPRPRPARKPRP: the “shrunken log2 fold change” value stood at 0.58.

Regarding RRIRGRPPRLPRPRPRPHQFPRP, the “shrunken log2 fold change” value was determined as 0.106.

Turning to RRIRHRPPRLPRPRPRPEMGPRP, the “shrunken log2 fold change” value came out at 0.00396.

As to RRIRHRPPRLPRPRPRPHPVPRP, the “shrunken log2 fold change” value is -0.248.

For the sequence RRIRCRPPRLPRPRPRPTNSPRP, the “shrunken log2 fold change” value is -0.336.

For RRIRARPPRLPRPRPRPHYTPRP, the “shrunken log2 fold change” value turned out to be 0.203.

Take RRIRDRPPRLPRPRPRPWSFPRP: the “shrunken log2 fold change” value came out at 0.0765.

As to RRIRMRPPRLPRPRPRPEPFPRP, the “shrunken log2 fold change” value worked out at 0.427.

Take RRIRERPPRLPRPRPRPTRHPRP: the “shrunken log2 fold change” value amounted to 0.157.

Consider RRIRFRPPRLPRPRPRPRQWPRP, for which the “shrunken log2 fold change” value was 0.39.

Regarding RRIRQRPPRLPRPRPRPKYEPRP, the “shrunken log2 fold change” value worked out at 0.0304.

For RRIRHRPPRLPRPRPRPLMWPRP, the “shrunken log2 fold change” value is -0.218.

Turning to RRIRPRPPRLPRPRPRPWVVPRP, the “shrunken log2 fold change” value stood at 0.0434.

In the case of RRIRHRPPRLPRPRPRPNCWPRP, the “shrunken log2 fold change” value came to 0.612.

Turning to RRIRFRPPRLPRPRPRPWSHPRP, the “shrunken log2 fold change” value is -0.843.
